The source of these data is patent US20200222478A1.

Targets include HLA-A*02:01 (human); HLA-A*01:01 (human); HLA-A*03:01 (human); HLA-A*24:02 (human); HLA-B*07:02 (human); HLA-B*08:01 (human).
Assay in all cases: UV peptide exchange + HLA class I ELISA
Common to all, as to settings: remark: other sources report otherwise
On the technique in general: An ELISA detects its analyte on a solid surface through an enzyme-linked reagent.

For IPVLTRWPL (here or on the partner: biotinylated heavy chain) [P19 9-mer peptide (TMEM222-LOC644961 fusion)], the exchange rate vs Pos peptide in the assay with HLA-A*02:01 (human) was found to be 8.2%; with HLA-A*01:01 (human), 5.2%; with HLA-A*03:01 (human), 4.1%; in the assay with HLA-A*24:02 (human), 0.1%; with HLA-B*07:02 (human), 91.3%; in the assay with HLA-B*08:01 (human), 14.5%.

Consider FLFLLLPLS (here or on the partner: biotinylated heavy chain) [P87 9-mer peptide (AR-Intron splice variant)], for which the exchange rate vs Pos peptide in the assay with HLA-A*02:01 (human) was found to be 64%; with HLA-A*01:01 (human), 1.1%; with HLA-A*03:01 (human), 2.4%; with HLA-A*24:02 (human), 0.2%; with HLA-B*07:02 (human), 5%; with HLA-B*08:01 (human), 3.1%.

Turning to LLERNSFEV (here or on the partner: biotinylated heavy chain) [P73 9-mer peptide (TP53 (G266E))], the exchange rate vs Pos peptide with HLA-A*02:01 (human) came to 89.2%; with HLA-A*03:01 (human), 3.5%; with HLA-A*24:02 (human), 0.5%; in the assay with HLA-B*07:02 (human), 8.7%; with HLA-B*08:01 (human) it was 2.6%.

Consider CYLGRQKRF (here or on the partner: biotinylated heavy chain) [P61 9-mer peptide (FOXA1.p.R261G)], for which the exchange rate vs Pos peptide with HLA-A*02:01 (human) was 5.8%; in the assay with HLA-A*01:01 (human), 1.7%; with HLA-A*24:02 (human), 90.3%; with HLA-B*08:01 (human), 3.6%.

Take YQFTFDLLI (here or on the partner: biotinylated heavy chain) [P48 9-mer peptide (AR.p.H875Y)]: the exchange rate vs Pos peptide with HLA-A*02:01 (human) was determined as 99.3%; with HLA-A*01:01 (human), 4.3%; with HLA-A*03:01 (human), 4.4%; in the assay with HLA-A*24:02 (human) it was 0.1%; with HLA-B*07:02 (human), 12.8%.

Consider QLIAMDSAI (here or on the partner: biotinylated heavy chain) [P22 9-mer peptide (SLC45A3-ELK4 fusion)], for which the exchange rate vs Pos peptide in the assay with HLA-A*02:01 (human) was determined as 46.9%; in the assay with HLA-A*01:01 (human), 4.4%; with HLA-A*03:01 (human), 4.8%; with HLA-A*24:02 (human), 0%; with HLA-B*07:02 (human), 8.3%; with HLA-B*08:01 (human), 3.9%.

Consider LMAQRLLLR (here or on the partner: biotinylated heavy chain) [P97 9-mer peptide (FOXRED2-TXN2 fusion)], for which the exchange rate vs Pos peptide with HLA-A*02:01 (human) came out at 4.6%; with HLA-A*01:01 (human) it was 2.5%; with HLA-A*03:01 (human), 39%; with HLA-A*24:02 (human), 0.1%; with HLA-B*07:02 (human), 7%; in the assay with HLA-B*08:01 (human) it was 2.7%.

For the molecule RAVRRMNTF (here or on the partner: biotinylated heavy chain) [P17 9-mer peptide (MSMB-NOCA4 fusion)], the exchange rate vs Pos peptide was 4.9% with HLA-A*01:01 (human), 3.8% with HLA-A*03:01 (human), 0.1% in the assay with HLA-A*24:02 (human) and 38.7% with HLA-B*07:02 (human).

With HVPKILSGK (here or on the partner: biotinylated heavy chain) [P58 9-mer peptide (AR (Q903H))], the exchange rate vs Pos peptide in the assay with HLA-A*02:01 (human) was 11.8%; with HLA-A*01:01 (human), 2.5%; with HLA-A*03:01 (human), 32.5%; in the assay with HLA-A*24:02 (human), 0.2%; with HLA-B*08:01 (human) it was 5.3%.

YCMAAPMGL (here or on the partner: biotinylated heavy chain) [P76 9-mer peptide (AR-V3 splice variant)]: the exchange rate vs Pos peptide with HLA-A*02:01 (human) is 85.9%; with HLA-A*01:01 (human) it was 0.1%; with HLA-A*03:01 (human) it was 6%; with HLA-A*24:02 (human) it was -0.5%; in the assay with HLA-B*07:02 (human) it was 91.5%.

In the case of RVGNCKHLK (here or on the partner: biotinylated heavy chain) [P82 9-mer peptide (AR-V7 splice variant)], the exchange rate vs Pos peptide is 6.3% with HLA-A*02:01 (human); 1.5% with HLA-A*01:01 (human); 58.1% with HLA-A*03:01 (human); -0.1% with HLA-A*24:02 (human); 12.9% with HLA-B*07:02 (human); 1.4% with HLA-B*08:01 (human).

For RAKCKFSIL (here or on the partner: biotinylated heavy chain) [P56 9-mer peptide (SPOP(F102C))], the exchange rate vs Pos peptide stood at 8.4% in the assay with HLA-A*02:01 (human); 2.6% in the assay with HLA-A*01:01 (human); 6.8% in the assay with HLA-A*03:01 (human); 0.5% in the assay with HLA-A*24:02 (human); 82.5% with HLA-B*07:02 (human); 38% in the assay with HLA-B*08:01 (human).

Regarding CPMSRLRLA (here or on the partner: biotinylated heavy chain) [P46 9-mer peptide (TP53 (R213D) frameshift)], the exchange rate vs Pos peptide in the assay with HLA-A*02:01 (human) was 14.4%; in the assay with HLA-A*01:01 (human) it was 2.4%; with HLA-A*03:01 (human), 10.3%; with HLA-A*24:02 (human), -0.4%; in the assay with HLA-B*07:02 (human) it was 64.8%; with HLA-B*08:01 (human), 14.5%.

With YLRRQKRLK (here or on the partner: biotinylated heavy chain) [P60 9-mer peptide (FOXA1.p.F266L)], the exchange rate vs Pos peptide with HLA-A*02:01 (human) stood at 7.9%; in the assay with HLA-A*01:01 (human), 3.1%; with HLA-A*03:01 (human), 36.6%; with HLA-A*24:02 (human), 0.9%; with HLA-B*07:02 (human), 6.1%; with HLA-B*08:01 (human), 10.2%.

Regarding IVWWCPMSR (here or on the partner: biotinylated heavy chain) [P98 9-mer peptide (TP53 (R213D) frameshift)], the exchange rate vs Pos peptide with HLA-A*02:01 (human) is 7.9%; in the assay with HLA-A*01:01 (human) it was 2.5%; in the assay with HLA-A*03:01 (human), 51.1%; with HLA-A*24:02 (human) it was -0.1%; with HLA-B*07:02 (human) it was 6.7%; with HLA-B*08:01 (human) it was 2.4%.
